Results published in patent US20170097353A1 (University of California, published 2017).
Ends that are not written are not given here. * marks the point of attachment. Butanoyl(4-N3) = [N-]=[N+]=NCCCC(=O)*

target: T1, Prostate Specific Membrane Antigen (PSMA) on the surface of LNCaP / LNCaP CSS prostate cancer cells (human, UniProt Q04609 1-750, glycoprotein); assay: cell-based phage ELISA on LNCaP cells (FIG. 5A)
T1 construct: whole, on cells; Endogenous PSMA on LNCaP cells (derived from lymph node adenocarcinoma of the human prostate); Cells were glutaraldehyde-fixed on Maxisorp plates in the cell-based phage ELISA, or in suspension in the sandwich ELISA; also called cell surface PSMA
T1 sequence (Q04609 whole entry): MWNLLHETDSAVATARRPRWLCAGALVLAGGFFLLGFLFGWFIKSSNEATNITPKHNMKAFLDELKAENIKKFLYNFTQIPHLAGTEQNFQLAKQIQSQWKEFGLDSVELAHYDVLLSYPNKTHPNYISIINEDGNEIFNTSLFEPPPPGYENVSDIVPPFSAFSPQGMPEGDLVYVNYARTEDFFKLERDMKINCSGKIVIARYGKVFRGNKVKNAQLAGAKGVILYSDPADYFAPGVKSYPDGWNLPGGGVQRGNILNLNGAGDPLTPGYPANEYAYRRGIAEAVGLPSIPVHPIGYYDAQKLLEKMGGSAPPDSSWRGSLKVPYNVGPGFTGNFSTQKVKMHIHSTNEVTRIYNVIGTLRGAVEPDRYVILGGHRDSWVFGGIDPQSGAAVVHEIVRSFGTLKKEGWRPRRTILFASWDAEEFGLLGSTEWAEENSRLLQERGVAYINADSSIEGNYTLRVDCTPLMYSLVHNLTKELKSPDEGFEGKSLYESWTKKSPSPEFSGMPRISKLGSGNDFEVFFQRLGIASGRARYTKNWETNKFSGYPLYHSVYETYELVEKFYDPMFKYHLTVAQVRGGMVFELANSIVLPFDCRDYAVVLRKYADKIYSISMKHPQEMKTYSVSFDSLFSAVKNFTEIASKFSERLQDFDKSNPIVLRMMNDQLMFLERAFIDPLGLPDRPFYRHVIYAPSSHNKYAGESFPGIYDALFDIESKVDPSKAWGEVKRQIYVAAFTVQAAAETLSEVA

| Binder | binding result |
| --- | --- |
| SECVEVFQNSCDW-NH2 (not fully specified (N-terminus); cysteine pairing not given here; also: Mal-PEG100-alkyne clicked (triazole) to azide at N-terminus, Multivalent display on M13 phage wrapped with K14-Cys) | binds |
| {pentynoic acid-Butanoyl(4-N3)}-SECVEVFQNSCDW-NH2 (not fully specified; cysteine pairing not given here; also: Mal-PEG100 coupled non-specifically (N-terminal or side-chain carboxylate), Multivalent display on M13 phage wrapped with K14-Cys; also called PEGylated ligand 2; peptide-2) | binds |
| {pentynoic acid-15‑azido‑4,7,10,13‑tetraoxapentadecanoic acid}-SECVEVFQNSCDW-NH2 (not fully specified; cysteine pairing not given here; also: pentynoic acid clicked to azide (triazole), Mal-PEG100-NH2 HBTU-coupled non-specifically, Multivalent display on M13 phage wrapped with K14-Cys) | binds |
| {Mal‑PEG100‑alkyne (triazole)-PEG4 linker}-SECVEVFQNSCDW-NH2 (not fully specified; cysteine pairing not given here, Multivalent display on M13 phage wrapped with K14-Cys) | binds |
